Laboratory results from US20200317768A1 (published 2020).

B1: M103205H795-MY525/M103202L889-SK1 (antibody, human IgG1, kappa)
heavy: QVTLKESGPVLVKPTETLTLTCTVSGIDLSHDDISWVRQAPGKGLEWVGIISYAGSTYYASWAKGRLTISKDTSKNQVVLTMTNMDPVDTATYYCARGVPAYSHGGDLWGQGTLVTVSSASTKGPSVFPLAPSSKSTSGGTAALGCLVKDYFPEPVTVSWNSGALTSGVHTFPAVLQSSGLYSLSSVVTVPSSSLGTQTYICNVNHKPSNTKVDKKVEPKSCDKTHTCPPCPTPELLTGPVVFLFPPKPKDTLMISRTPEVTCVVVDVSDEDPEVKFNWYVDGVEVHNAKTKPREEQYNSTYRVVSVLTVLHQDWLNGKEYKCKVSNKALPKPIEKTISKAKGQPREPQVYTLPPSREEMTKNQVSLTCLVKGFYPSDIAVEWESNGQPENNYKTTPPVLDSDGSFFLYSKLTVDKSRWQQGNVFSCSVMHEALHNHYTQKSLSLSP
light: DIVMTQSPATLSLSPGERATLSCTSSQSVYHANWLSWFQQKPGQPPKLLIYWASTLAYGVPSRFSGSGSGTDFTLTISSLQPEDAATYYCAGGYGGGRYAFGQGTKVEIKRTVAAPSVFIFPPSDEQLKSGTASVVCLLNNFYPREAKVQWKVDNALQSGNSQESVTEQDSKDSTYSLSSTLTLSKADYEKHKVYACEVTHQGLSSPVTKSFNRGEC
notes: Substitutions introduced into M103205H795-SG1, expressed with M103202L889-SK1 as light chain; EU numbering
B2: M103205H795-MY526/M103202L889-SK1 (antibody, human IgG1, kappa)
heavy: QVTLKESGPVLVKPTETLTLTCTVSGIDLSHDDISWVRQAPGKGLEWVGIISYAGSTYYASWAKGRLTISKDTSKNQVVLTMTNMDPVDTATYYCARGVPAYSHGGDLWGQGTLVTVSSASTKGPSVFPLAPSSKSTSGGTAALGCLVKDYFPEPVTVSWNSGALTSGVHTFPAVLQSSGLYSLSSVVTVPSSSLGTQTYICNVNHKPSNTKVDKKVEPKSCDKTHTCPPCPTPELLTGPVVFLFPPKPKDTLMISRTPEVTCVVVDVSDEDPEVKFNWYVDGVEVHNAKTKPREELYNSTYRVVSVLTVLHQDWLNGKEYKCKVSNKALPKPIEKTISKAKGQPREPQVYTLPPSREEMTKNQVSLTCLVKGFYPSDIAVEWESNGQPENNYKTTPPVLDSDGSFFLYSKLTVDKSRWQQGNVFSCSVMHEALHNHYTQKSLSLSP
light: DIVMTQSPATLSLSPGERATLSCTSSQSVYHANWLSWFQQKPGQPPKLLIYWASTLAYGVPSRFSGSGSGTDFTLTISSLQPEDAATYYCAGGYGGGRYAFGQGTKVEIKRTVAAPSVFIFPPSDEQLKSGTASVVCLLNNFYPREAKVQWKVDNALQSGNSQESVTEQDSKDSTYSLSSTLTLSKADYEKHKVYACEVTHQGLSSPVTKSFNRGEC
notes: as for B1
B3: M103205H795-MY527/M103202L889-SK1 (antibody, human IgG1, kappa)
heavy: QVTLKESGPVLVKPTETLTLTCTVSGIDLSHDDISWVRQAPGKGLEWVGIISYAGSTYYASWAKGRLTISKDTSKNQVVLTMTNMDPVDTATYYCARGVPAYSHGGDLWGQGTLVTVSSASTKGPSVFPLAPSSKSTSGGTAALGCLVKDYFPEPVTVSWNSGALTSGVHTFPAVLQSSGLYSLSSVVTVPSSSLGTQTYICNVNHKPSNTKVDKKVEPKSCDKTHTCPPCPTPELLTGPSVFLFPPKPKDTLMISRTPEVTCVVVDVSDEDPEVKFNWYVDGVEVHNAKTKPREELYNSTYRVVSVLTVLHQDWLNGKEYKCKVSNKALPKPIEKTISKAKGQPREPQVYTLPPSREEMTKNQVSLTCLVKGFYPSDIAVEWESNGQPENNYKTTPPVLDSDGSFFLYSKLTVDKSRWQQGNVFSCSVMHEALHNHYTQKSLSLSP
light: DIVMTQSPATLSLSPGERATLSCTSSQSVYHANWLSWFQQKPGQPPKLLIYWASTLAYGVPSRFSGSGSGTDFTLTISSLQPEDAATYYCAGGYGGGRYAFGQGTKVEIKRTVAAPSVFIFPPSDEQLKSGTASVVCLLNNFYPREAKVQWKVDNALQSGNSQESVTEQDSKDSTYSLSSTLTLSKADYEKHKVYACEVTHQGLSSPVTKSFNRGEC
notes: as for B1
B4: M103205H795-MY528/M103202L889-SK1 (antibody, human IgG1, kappa)
heavy: QVTLKESGPVLVKPTETLTLTCTVSGIDLSHDDISWVRQAPGKGLEWVGIISYAGSTYYASWAKGRLTISKDTSKNQVVLTMTNMDPVDTATYYCARGVPAYSHGGDLWGQGTLVTVSSASTKGPSVFPLAPSSKSTSGGTAALGCLVKDYFPEPVTVSWNSGALTSGVHTFPAVLQSSGLYSLSSVVTVPSSSLGTQTYICNVNHKPSNTKVDKKVEPKSCDKTHTCPPCPAPEWLTGPSVFLFPPKPKDTLMISRTPEVTCVVVDVSDEDPEVKFNWYVDGVEVHNAKTKPREEQYNSTYRVVSVLTVLHQDWLNGKEYKCKVSNKALPKPIEKTISKAKGQPREPQVYTLPPSREEMTKNQVSLTCLVKGFYPSDIAVEWESNGQPENNYKTTPPVLDSDGSFFLYSKLTVDKSRWQQGNVFSCSVMHEALHNHYTQKSLSLSP
light: DIVMTQSPATLSLSPGERATLSCTSSQSVYHANWLSWFQQKPGQPPKLLIYWASTLAYGVPSRFSGSGSGTDFTLTISSLQPEDAATYYCAGGYGGGRYAFGQGTKVEIKRTVAAPSVFIFPPSDEQLKSGTASVVCLLNNFYPREAKVQWKVDNALQSGNSQESVTEQDSKDSTYSLSSTLTLSKADYEKHKVYACEVTHQGLSSPVTKSFNRGEC
notes: as for B1
B5: M103205H795-MY529/M103202L889-SK1 (antibody, human IgG1, kappa)
heavy: QVTLKESGPVLVKPTETLTLTCTVSGIDLSHDDISWVRQAPGKGLEWVGIISYAGSTYYASWAKGRLTISKDTSKNQVVLTMTNMDPVDTATYYCARGVPAYSHGGDLWGQGTLVTVSSASTKGPSVFPLAPSSKSTSGGTAALGCLVKDYFPEPVTVSWNSGALTSGVHTFPAVLQSSGLYSLSSVVTVPSSSLGTQTYICNVNHKPSNTKVDKKVEPKSCDKTHTCPPCPAPEWLTGPSVFLFPPKPKDTLMISRTPEVTCVVVDVSDEDPEVKFNWYVDGVEVHNAKTKPREELYNSTYRVVSVLTVLHQDWLNGKEYKCKVSNKALPKPIEKTISKAKGQPREPQVYTLPPSREEMTKNQVSLTCLVKGFYPSDIAVEWESNGQPENNYKTTPPVLDSDGSFFLYSKLTVDKSRWQQGNVFSCSVMHEALHNHYTQKSLSLSP
light: DIVMTQSPATLSLSPGERATLSCTSSQSVYHANWLSWFQQKPGQPPKLLIYWASTLAYGVPSRFSGSGSGTDFTLTISSLQPEDAATYYCAGGYGGGRYAFGQGTKVEIKRTVAAPSVFIFPPSDEQLKSGTASVVCLLNNFYPREAKVQWKVDNALQSGNSQESVTEQDSKDSTYSLSSTLTLSKADYEKHKVYACEVTHQGLSSPVTKSFNRGEC
notes: as for B1

Key:
Experiment in all cases: SPR (BIACORE); KD of SG1 / KD of variant;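 also: relative to parent M103205H795-SG1 carrying the SG1 human heavy chain constant region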
[1] = target: T1, cynomolgus monkey FcγRIIa1 extracellular domain with C-terminal His-tag (cynomolgus monkey)
T1 construct: also called cyno FcgRIIa1; cynoFcγRIIa1
T1 chain: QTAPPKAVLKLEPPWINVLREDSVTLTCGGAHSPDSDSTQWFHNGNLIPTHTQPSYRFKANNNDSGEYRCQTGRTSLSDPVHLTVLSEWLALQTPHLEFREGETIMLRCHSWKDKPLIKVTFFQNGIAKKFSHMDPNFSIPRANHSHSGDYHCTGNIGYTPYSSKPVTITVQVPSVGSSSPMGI

[2] = target: T2, cynomolgus monkey FcγRIIa3 extracellular domain with C-terminal His-tag (cynomolgus monkey)
T2 construct: also called cyno FcgRIIa3; cynoFcγRIIa3
T2 chain: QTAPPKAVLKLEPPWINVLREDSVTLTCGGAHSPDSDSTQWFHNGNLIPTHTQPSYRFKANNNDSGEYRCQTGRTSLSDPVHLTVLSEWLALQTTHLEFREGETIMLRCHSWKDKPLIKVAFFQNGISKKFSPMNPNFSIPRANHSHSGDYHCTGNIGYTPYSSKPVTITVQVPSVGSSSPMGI

[3] = target: T3, cynomolgus monkey FcγRIIb extracellular domain with C-terminal His-tag (cynomolgus monkey)
T3 construct: also called cyno FcgRIIb; cynoFcγRIIb
T3 chain: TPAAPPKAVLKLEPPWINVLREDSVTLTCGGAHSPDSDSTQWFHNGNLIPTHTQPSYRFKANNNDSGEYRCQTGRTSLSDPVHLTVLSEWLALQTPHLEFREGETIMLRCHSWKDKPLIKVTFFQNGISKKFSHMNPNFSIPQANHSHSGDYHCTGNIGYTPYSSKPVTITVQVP

[4] = target: T4, cynomolgus monkey FcγRIIIaS extracellular domain with C-terminal His-tag (cynomolgus monkey, UniProt Q8SPW2 21-206 at identity 1.00))
T4 construct: also called cyno FcgRIIIaS; cynoFcγRIIIaS
T4 chain: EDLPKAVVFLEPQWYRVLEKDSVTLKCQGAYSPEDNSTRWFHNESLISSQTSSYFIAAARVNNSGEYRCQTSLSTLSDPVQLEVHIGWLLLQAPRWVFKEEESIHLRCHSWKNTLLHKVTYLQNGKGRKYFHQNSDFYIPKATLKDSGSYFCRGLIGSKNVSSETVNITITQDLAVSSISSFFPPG

[5] = target: T5, human FcγRIIaH extracellular domain with C-terminal His-tag (human, UniProt P12318 34-217)
T5 construct: also called human FcgRIIaH; FcγRIIa (type H)
T5 sequence: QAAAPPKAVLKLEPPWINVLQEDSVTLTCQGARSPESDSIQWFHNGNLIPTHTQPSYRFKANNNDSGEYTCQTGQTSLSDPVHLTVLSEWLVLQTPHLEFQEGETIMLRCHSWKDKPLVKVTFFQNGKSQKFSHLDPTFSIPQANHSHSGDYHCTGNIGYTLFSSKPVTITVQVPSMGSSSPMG

[6] = target: T6, human FcγRIIaR extracellular domain with C-terminal His-tag (human, UniProt P12318 34-217)
T6 construct: also called human FcgRIIaR; FcγRIIa (type R)
T6 chain: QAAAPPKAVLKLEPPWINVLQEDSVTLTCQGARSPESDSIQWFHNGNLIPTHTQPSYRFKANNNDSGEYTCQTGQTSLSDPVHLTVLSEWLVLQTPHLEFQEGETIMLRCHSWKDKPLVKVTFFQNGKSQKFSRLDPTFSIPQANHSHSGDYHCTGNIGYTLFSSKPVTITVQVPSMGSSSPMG

[7] = target: T7, human FcγRIIb extracellular domain with C-terminal His-tag (human, UniProt P31994 43-217)
T7 construct: also called human FcgRIIb
T7 sequence: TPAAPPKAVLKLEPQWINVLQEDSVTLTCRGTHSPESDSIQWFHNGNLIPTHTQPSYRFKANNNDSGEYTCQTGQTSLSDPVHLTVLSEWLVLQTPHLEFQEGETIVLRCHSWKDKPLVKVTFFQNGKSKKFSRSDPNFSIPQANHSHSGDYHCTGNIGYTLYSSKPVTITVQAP

[8] = target: T8, human FcγRIIIaV extracellular domain with C-terminal His-tag (human, UniProt P08637 17-208)
T8 construct: also called human FcgRIIIaV
T8 sequence (P08637 17-208 F176V): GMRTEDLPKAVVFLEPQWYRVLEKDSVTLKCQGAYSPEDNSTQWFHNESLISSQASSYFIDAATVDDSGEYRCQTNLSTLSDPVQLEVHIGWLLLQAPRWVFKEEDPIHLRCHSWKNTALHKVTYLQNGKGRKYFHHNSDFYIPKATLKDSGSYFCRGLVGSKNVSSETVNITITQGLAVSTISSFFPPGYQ

Row | Binder | KD fold (SG1 = 1) [1] [fold] | KD fold (SG1 = 1) [2] [fold] | KD fold (SG1 = 1) [3] [fold] | KD fold (SG1 = 1) [4] [fold] | KD fold (SG1 = 1) [5] [fold] | KD fold (SG1 = 1) [6] [fold] | KD fold (SG1 = 1) [7] [fold] | KD fold (SG1 = 1) [8] [fold]
1 | B1 | 2 | 15.5 | 3.5 | 0.26 | 3.3 | 6.5 | 3.8 | 0.19
2 | B2 | 2.5 | 13.1 | 3.9 | 0.23 | 4.1 | 5.2 | 3.8 | 0.19
3 | B3 | 2.9 | 5 | 5 | 0.24 | 6.3 | 3.8 | 3.5 | 0.18
4 | B4 | 2.3 | 5.3 | 4.4 | 0.15 | 2 | 2 | 2.1 | 0.19
5 | B5 | 3.2 | 5.3 | 6 | 0.16 | 3 | 2.1 | 3.3 | 0.2
